B4: MBP-CBP (residues 1808-1852) fusion protein (other)
chain: GCKRKTNGGCPVCKQLIALCCYHAKHCQENKCPVPFCLNIKHKLR
notes: Bacterially expressed
B7: GST-16E6 (other)
chain: MFQDPQERPRKLPQLCTELQTTIHDIILECVYCKQQLLRREVYDFAFRDLCIVYRDGNPYAVCDKCLKFYSKYSEYRHYCYSLYGTTLEQQYNKPLCDLLIRCINCQKPLCPEEKQRHLDKKQRFHNIRGRWTGRCMSCCRSSRTRRETQL

The target in assay [1] is T1, in vitro translated 35S-labeled CBP (1621-1877) (UniProt P45481 1621-1877).
T1 construct: also called in vitro translated CBP II
T1 sequence (looked up): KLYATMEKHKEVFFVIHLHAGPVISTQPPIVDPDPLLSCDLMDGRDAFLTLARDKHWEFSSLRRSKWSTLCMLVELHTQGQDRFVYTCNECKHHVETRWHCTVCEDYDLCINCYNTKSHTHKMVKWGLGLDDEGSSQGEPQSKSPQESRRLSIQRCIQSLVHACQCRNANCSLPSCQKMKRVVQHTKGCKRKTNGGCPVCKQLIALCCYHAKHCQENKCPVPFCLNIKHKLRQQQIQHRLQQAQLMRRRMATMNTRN
The assay can be described thus: GST-E6 micro-affinity column, IVT CBP II.

Assay [2] addresses T1, in vitro translated 35S-labeled CBP …. Nature of the assay: GST-E6 fragment micro-affinity column.
Assay [3] has as its target T2, in vitro translated radiolabeled TFIIB (UniProt Q00403 1-316).
T2 sequence (looked up): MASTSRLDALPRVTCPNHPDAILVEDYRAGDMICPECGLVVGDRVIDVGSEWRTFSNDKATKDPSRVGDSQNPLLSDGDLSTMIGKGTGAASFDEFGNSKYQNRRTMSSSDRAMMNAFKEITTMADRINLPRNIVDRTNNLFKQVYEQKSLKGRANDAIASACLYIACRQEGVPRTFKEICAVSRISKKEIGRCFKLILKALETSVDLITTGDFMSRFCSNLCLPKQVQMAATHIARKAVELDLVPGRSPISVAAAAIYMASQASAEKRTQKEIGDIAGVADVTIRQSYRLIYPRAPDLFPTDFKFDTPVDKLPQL
The assay can be described thus: GST micro-column pull-down, IVT protein.

The assay “GST-16E6” concerns the target B7. The assay can be described thus: GST micro-affinity column, purified recombinant proteins, western blot. In general terms: A western blot detects proteins with antibodies after separation by electrophoresis.
Assay [4] deals with in vitro translated 35S-methionine labelled p53 (wild type) (UniProt P04637 1-393). The assay can be described thus: GST micro-column pull-down, IVT protein.
Assay [5] deals with T3, GST-CBP II (residues 1621-1877) (UniProt P45481 1621-1877).
T3 construct: also called GST-CBP II domain
T3 sequence: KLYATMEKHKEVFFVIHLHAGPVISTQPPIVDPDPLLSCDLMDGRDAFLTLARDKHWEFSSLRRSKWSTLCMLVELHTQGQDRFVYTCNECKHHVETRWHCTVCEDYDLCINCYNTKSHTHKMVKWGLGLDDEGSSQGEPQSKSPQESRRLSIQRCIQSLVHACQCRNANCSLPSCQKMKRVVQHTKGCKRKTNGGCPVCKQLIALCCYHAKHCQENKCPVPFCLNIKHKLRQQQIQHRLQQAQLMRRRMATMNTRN
The assay can be described thus: GST micro-affinity column, IVT E6.

Assay [6] addresses T4, GST-CBP I (residues 461-662) (UniProt P45481 461-662).
T4 construct: range 461-662; also called GST-CBP I (461-662)
T4 sequence: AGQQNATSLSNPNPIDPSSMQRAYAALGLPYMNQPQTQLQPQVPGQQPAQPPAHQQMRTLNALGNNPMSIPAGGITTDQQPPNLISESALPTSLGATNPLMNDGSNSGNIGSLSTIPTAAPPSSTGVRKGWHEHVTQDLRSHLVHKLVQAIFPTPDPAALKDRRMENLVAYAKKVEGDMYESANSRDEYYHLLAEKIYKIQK
Nature of the assay: GST micro-affinity column, IVT radiolabelled E6.

For another assay, the target named is T5, GST (control) (UniProt P08515 1-218 = GST).
T5 construct: also called control GST column; GST alone
The assay can be described thus: GST micro-affinity column, IVT radiolabelled E6.

In assay [7] the target is B4. The assay can be described thus: MBP micro-affinity column, purified recombinant proteins, western blot.
The target of another assay is T6, GST-E6AP (UniProt Q05086 24-875).
T6 sequence: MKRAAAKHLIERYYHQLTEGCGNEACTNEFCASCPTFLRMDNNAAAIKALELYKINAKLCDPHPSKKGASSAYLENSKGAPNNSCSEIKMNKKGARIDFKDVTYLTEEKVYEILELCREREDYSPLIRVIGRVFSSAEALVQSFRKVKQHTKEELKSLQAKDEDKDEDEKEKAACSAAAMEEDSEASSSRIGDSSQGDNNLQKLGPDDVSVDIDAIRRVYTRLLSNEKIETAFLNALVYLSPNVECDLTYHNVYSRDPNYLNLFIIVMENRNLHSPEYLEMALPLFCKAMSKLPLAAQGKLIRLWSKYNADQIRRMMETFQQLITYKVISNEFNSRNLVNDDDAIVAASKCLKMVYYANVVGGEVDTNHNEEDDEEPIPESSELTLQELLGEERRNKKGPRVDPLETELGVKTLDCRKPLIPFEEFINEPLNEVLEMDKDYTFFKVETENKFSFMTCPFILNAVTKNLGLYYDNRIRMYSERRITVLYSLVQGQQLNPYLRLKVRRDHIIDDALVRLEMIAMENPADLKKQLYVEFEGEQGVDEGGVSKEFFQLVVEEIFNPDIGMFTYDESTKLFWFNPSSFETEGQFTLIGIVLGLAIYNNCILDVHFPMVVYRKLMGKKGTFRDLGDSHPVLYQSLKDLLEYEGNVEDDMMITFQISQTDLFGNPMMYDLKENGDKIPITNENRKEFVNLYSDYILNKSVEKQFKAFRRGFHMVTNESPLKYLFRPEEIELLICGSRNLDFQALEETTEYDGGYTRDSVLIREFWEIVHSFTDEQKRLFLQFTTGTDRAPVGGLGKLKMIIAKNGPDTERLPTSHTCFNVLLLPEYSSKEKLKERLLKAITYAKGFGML
The assay can be described thus: GST-E6AP micro-affinity column, IVT E6.

The target of assay [8] is T7, GST-CBP fusion protein (CBP residues not stated) (UniProt P45481 1621-1877).
T7 sequence: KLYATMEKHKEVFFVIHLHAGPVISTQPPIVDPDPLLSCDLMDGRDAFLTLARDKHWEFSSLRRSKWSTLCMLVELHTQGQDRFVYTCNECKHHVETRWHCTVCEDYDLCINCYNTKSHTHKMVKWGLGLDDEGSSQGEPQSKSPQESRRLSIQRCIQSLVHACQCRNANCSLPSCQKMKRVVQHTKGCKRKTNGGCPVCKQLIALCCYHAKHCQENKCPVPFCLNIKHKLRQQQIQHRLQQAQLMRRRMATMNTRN
The assay can be described thus: GST-CBP micro-affinity column, IVT E6.

This is an account of results in patent US6864054 (INSTITUTE OF MOLECULAR AND CELL BIOLOGY, dated 2005).

T5 sequence (P08515 whole entry): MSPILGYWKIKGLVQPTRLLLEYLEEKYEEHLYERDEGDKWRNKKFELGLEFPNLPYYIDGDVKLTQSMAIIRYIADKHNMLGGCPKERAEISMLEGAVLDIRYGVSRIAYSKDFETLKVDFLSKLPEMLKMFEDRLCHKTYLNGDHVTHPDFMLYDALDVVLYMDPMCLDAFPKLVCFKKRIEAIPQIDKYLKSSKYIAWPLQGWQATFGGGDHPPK
Chain of in vitro translated 35S-methionine labelled p53 (wild type) (P04637 whole entry, the tested form may be a part): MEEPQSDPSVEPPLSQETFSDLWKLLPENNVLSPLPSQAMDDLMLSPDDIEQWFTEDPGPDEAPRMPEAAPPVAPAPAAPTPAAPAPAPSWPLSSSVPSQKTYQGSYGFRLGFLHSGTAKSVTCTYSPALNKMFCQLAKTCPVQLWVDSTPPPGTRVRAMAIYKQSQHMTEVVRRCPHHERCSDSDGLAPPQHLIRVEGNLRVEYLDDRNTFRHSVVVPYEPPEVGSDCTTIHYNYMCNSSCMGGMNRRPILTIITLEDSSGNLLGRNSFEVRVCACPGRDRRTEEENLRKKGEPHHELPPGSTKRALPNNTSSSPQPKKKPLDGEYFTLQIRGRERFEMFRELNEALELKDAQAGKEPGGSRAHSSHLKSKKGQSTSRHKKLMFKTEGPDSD

B1: GST-6E6 (other)
chain: MESANASTSATTIDQLCKTFNLSMHTLQINCVFCKNALTTAEIYSYAYKHLKVLFRGGYPYAACACCLEFHGKINQYRHFDYAGYATTVEEETKQDILDVLIRCYLCHKPLCEVEKVKHILTKARFIKLNCTWKGRCLHCWTTCMEDMLP
notes: mature
Take B1: in assay [1], the binding result is reported as “no binding”. In the case of LIRCINCQKPLCPEEKQRHLDKKQRFHNIRGRWTGRCMSCCRSSRTRR (other) [GST-16E6 (amino acids 100-147)], the binding result in [2] was “binds”. Take GCKRKTNGGCPVCKQLIAL (other, UniProt P45481 1808-1826, looked up, not shown: a dimerising Fc or GST, also called CBP TRAM) [GST-CBP (1808-1826)]: the binding result in assay [3] is recorded as “binds”.

B2: GST-16E6 without C-terminal residues 148-151 (other)
chain: MFQDPQERPRKLPQLCTELQTTIHDIILECVYCKQQLLRREVYDFAFRDLCIVYRDGNPYAVCDKCLKFYSKYSEYRHYCYSLYGTTLEQQYNKPLCDLLIRCINCQKPLCPEEKQRHLDKKQRFHNIRGRWTGRCMSCCRSSRTRR
On to B2, for which the binding result in assay [2] is given as “binds”.

B3: GST-16E6 C-terminal half (85-151) (other)
chain: GTTLEQQYNKPLCDLLIRCINCQKPLCPEEKQRHLDKKQRFHNIRGRWTGRCMSCCRSSRTRRETQL
On to B3, for which the binding result in [2] was “binds”. With B4, the binding result with GST-16E6 is recorded as “binds”.

B5: GST-Mdm2 (466-484) (other, human, UniProt Q00987 466-484, looked up, not shown: a dimerising Fc or GST)
chain: KKLKKRNKPCPVCRQPIQM
notes: also called wild type Mdm2 TRAM; Mdm2 TRAM
Take B5: the binding result in [4] and in assay [3] was “binds” throughout.

B6: in vitro translated and radiolabeled HPV-16 E6 (other)
chain: MFQDPQERPRKLPQLCTELQTTIHDIILECVYCKQQLLRREVYDFAFRDLCIVYRDGNPYAVCDKCLKFYSKYSEYRHYCYSLYGTTLEQQYNKPLCDLLIRCINCQKPLCPEEKQRHLDKKQRFHNIRGRWTGRCMSCCRSSRTRRETQL
For B6, the binding result in assay [5] was “binds”; in assay [6], “no binding”; in the assay with GST (control), “no binding”. Consider B7, for which the binding result in assay [1] and in [7] was “binds” in each case.

B8: in vitro translated HPV-16 E6 L50G protein (other)
chain: MFQDPQERPRKLPQLCTELQTTIHDIILECVYCKQQLLRREVYDFAFRDGCIVYRDGNPYAVCDKCLKFYSKYSEYRHYCYSLYGTTLEQQYNKPLCDLLIRCINCQKPLCPEEKQRHLDKKQRFHNIRGRWTGRCMSCCRSSRTRRETQL
As for B8, the binding result with GST-E6AP is “no binding”.

B9: GST-16E6 N-terminal half (1-84) (other)
chain: MFQDPQERPRKLPQLCTELQTTIHDIILECVYCKQQLLRREVYDFAFRDLCIVYRDGNPYAVCDKCLKFYSKYSEYRHYCYSLY
Turning to B9, the binding result in [2] is listed as “no binding”.

B10: GST-11E6 (other)
chain: MESKDASTSATSIDQLCKTFNLSLHTLQIQCVFCRNALTTAEIYAYAYKNLKVVWRDNFPFAACACCLELQGKINQYRHFNYAAYAPTVEEETNEDILKVLIRCYLCHKPLCEIEKLKHILGKARFIKLNNQWKGRCLHCWTTCMEDLLP
On to B10, for which the binding result in [1] is “no binding”.

B11: in vitro translated HPV-11 E6 protein (other)
chain: MESKDASTSATSIDQLCKTFNLSLHTLQIQCVFCRNALTTAEIYAYAYKNLKVVWRDNFPFAACACCLELQGKINQYRHFNYAAYAPTVEEETNEDILKVLIRCYLCHKPLCEIEKLKHILGKARFIKLNNQWKGRCLHCWTTCMEDLLP
notes: mature
As for B11, the binding result (with GST-E6AP; in assay [8]) was “no binding” throughout.
